One experiment deals with T1, MERS-CoV spike protein (MERS-CoV, UniProt K9N5Q8 18-1291).
T1 sequence: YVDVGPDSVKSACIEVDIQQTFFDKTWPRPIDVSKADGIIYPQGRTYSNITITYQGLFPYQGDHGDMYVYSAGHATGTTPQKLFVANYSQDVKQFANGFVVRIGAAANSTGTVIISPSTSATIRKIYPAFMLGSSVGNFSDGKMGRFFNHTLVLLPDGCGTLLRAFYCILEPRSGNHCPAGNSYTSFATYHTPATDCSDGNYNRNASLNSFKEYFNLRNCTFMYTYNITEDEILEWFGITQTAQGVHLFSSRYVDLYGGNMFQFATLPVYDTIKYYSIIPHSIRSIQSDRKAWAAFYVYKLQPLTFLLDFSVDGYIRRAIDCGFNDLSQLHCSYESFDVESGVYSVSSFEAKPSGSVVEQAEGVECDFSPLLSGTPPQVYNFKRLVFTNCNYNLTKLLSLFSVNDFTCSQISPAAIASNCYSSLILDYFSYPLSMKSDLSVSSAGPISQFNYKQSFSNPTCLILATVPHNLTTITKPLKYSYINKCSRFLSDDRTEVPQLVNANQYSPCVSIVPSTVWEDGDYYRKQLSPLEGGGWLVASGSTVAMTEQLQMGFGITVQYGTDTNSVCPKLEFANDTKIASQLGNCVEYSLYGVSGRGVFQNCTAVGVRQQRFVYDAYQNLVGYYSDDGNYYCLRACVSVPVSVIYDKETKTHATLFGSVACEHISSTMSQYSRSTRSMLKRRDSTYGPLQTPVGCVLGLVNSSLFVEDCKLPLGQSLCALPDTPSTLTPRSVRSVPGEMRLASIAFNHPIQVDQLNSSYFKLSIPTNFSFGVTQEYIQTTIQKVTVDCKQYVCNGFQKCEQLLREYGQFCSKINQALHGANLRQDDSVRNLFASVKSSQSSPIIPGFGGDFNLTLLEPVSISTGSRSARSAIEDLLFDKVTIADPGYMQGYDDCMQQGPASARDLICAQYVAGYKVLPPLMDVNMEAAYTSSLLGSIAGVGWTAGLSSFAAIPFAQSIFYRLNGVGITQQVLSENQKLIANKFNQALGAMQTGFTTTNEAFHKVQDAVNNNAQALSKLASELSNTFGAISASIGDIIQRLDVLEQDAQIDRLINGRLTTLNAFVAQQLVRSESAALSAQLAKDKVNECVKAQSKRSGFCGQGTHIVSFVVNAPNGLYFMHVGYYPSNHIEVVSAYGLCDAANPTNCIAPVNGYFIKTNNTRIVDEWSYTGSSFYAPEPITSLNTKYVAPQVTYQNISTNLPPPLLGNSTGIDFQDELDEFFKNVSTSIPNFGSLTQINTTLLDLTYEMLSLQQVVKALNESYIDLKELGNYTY
As to the kind of experiment: bead flow cytometry, AUC minus CD4. A general note: A flow cytometer gives signals particle by particle.

Experiment [1] deals with T2, HCoV-HKU1 spike protein (Sino Biological 40606-V08B) (HCoV-HKU1, UniProt Q0ZME7 13-1295).
T2 sequence: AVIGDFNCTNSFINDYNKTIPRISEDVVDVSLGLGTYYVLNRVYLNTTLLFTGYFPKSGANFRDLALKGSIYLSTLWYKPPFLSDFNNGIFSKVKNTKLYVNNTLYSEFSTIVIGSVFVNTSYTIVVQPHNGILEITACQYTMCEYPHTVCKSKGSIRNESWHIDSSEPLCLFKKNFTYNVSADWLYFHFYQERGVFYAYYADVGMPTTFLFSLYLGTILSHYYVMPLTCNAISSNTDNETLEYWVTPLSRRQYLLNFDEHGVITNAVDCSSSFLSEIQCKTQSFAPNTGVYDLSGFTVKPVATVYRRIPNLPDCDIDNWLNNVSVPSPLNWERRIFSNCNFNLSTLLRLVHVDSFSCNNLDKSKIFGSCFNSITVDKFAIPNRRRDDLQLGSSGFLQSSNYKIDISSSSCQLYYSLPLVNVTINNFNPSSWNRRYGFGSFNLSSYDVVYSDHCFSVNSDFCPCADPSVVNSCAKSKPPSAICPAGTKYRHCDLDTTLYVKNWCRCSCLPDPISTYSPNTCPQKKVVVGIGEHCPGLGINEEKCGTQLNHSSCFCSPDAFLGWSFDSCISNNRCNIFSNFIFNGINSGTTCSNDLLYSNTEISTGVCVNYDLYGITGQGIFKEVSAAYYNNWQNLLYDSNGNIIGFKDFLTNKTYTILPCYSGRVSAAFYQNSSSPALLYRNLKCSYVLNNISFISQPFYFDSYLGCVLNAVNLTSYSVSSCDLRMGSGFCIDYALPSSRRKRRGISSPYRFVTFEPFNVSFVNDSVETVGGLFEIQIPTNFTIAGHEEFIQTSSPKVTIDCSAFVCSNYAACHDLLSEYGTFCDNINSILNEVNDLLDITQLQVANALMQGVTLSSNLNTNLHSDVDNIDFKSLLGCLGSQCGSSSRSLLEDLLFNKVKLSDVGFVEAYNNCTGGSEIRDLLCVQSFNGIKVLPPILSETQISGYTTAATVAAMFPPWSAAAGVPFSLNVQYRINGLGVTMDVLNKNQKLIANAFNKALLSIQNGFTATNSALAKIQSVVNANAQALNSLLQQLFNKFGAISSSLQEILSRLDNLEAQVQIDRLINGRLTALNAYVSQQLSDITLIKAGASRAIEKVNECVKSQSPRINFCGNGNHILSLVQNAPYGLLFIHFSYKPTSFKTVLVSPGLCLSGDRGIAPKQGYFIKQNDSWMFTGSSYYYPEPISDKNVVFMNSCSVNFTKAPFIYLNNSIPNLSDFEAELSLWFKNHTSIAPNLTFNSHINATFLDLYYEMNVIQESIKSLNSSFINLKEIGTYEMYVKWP
Put plainly: bead flow cytometry, AUC minus CD4.

B1: COV77-09 (antibody, V domains shown)
VH: EVQLVESGGGLVQPGRSLTLSCSGSGFTFGDYSMSWVRQAPGKGLEWLGFIRSQTYGGTTQYAASVQGRFTILRDDSKSIAYLQMNSLKTEDTAVYYCTRNYGVGDYWGQGTLVTVSS
VL: DIVMTQSPASLAVSLGERATIHCRSSLSVLNSSNNKNYLAWYQQKAGQPPKLLMYWASTRESGVPERFSGSGSGTDFTLTISSLEAGDVAVYYCQQYYDKLSLTFGGGTKVEIK
For B1, the binding result in the experiment with MERS-CoV spike protein is “no binding (tested: 200 µg/mL)”.

B2: COV44-37 (antibody, V domains shown)
VH: QVQLVQSGAEVKKPGASVMLSCRASGYTFINDYMHWVRQAPGEGFEWMGIINPTGDGTKFAQKFQGRVTMTRDSSTTTVHMELRSLTSGDTAVYFCATGGRQSAFDIWGQGTVVIVSS
VL: DIVMTQSPLSLPVTPGESASISCRSSQSLLQNNGYNYLDWYLQKPGQSPQLLIYLGSYRASGVPDRFSGSGSGTDFTLKISRVEAEDVGVYYCVQAQQAPPLYTFGQGTKLQIK
With B2, the binding result in experiment [1] is “no binding (tested: 200 µg/mL)”.

B3: COV49-54 (antibody, V domains shown)
VH: EVQLVESGGGLVQPGGSLRLSCAASGFIVSSNYMSWVRQAPGKGLEWVSMIYSGGSTVYADSVKGRFTISRDISKNTLYLQMNSLRAEDTAVYYCALETFDYWGQGTLVTVSS
VL: DIQMTQSPSSLSASVGDRVTITCRASQGITNHLAWYQQKPGKVPKLLIYAASTLQSGVPSRFSGSGYGTDFTLTISSLQPEDVASYYCQKYDSAPRTFGQGTKVEIK
For B3, the binding result with MERS-CoV spike protein was “no binding (tested: 200 µg/mL)”.

B4: COV57-34 (antibody, V domains shown)
VH: QVQLVQSGTEVKKPGSSVKVSCRASGGTLSSYSVSWVRQAPGQGLEWMGRIIPILDKKTYAQKYQGRVTIIADTSTSTVYMELSSLKSDDSAVYYCTTFDYDTSGQRDQHDYWGQGTPVTVSS
VL: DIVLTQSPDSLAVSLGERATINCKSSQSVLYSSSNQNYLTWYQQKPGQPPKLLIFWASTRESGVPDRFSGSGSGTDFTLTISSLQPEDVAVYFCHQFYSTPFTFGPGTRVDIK
As for B4, the binding result with MERS-CoV spike protein is on record as “no binding (tested: 200 µg/mL)”.

B5: COV57-13 (antibody, V domains shown)
VH: QVQLVQSGTEVKKPGSSVKVSCRASGGTLSSYSVSWVRQAPGQGLEWMGRIIPILDKKTYAQKYQGRVTIIADTSTSTVYMELSSLKSEDSAVYYCTTFDYDTSGQRDQHDYWGQGTLVTVSS
VL: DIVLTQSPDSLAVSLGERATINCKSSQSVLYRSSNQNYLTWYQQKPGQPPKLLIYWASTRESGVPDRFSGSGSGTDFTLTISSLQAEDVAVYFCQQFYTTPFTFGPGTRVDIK
Turning to B5, the binding result with MERS-CoV spike protein is “no binding (tested: 200 µg/mL)”.

B6: COV57-38 (antibody, V domains shown)
VH: QVQLVESGGGVVQPGRSLRLSCEASGFNFNNYGMHWVRQAPGKGLEWVAVISYEGSKKYYEDSVRGRFTISRDFSKNTLYLQMNSLRAEDTAVYYCAKANEIFWLGQFKNDALDFWGQGTMVTVSS
VL: QSVLTQPPSASGTPGQRVAVSCSGSSSNIGTNFVNWYQHLPRTAPKLLIYRDNQRPSGVPDRFSGSKSGTSASLAISGLQSEDEADYYCAVWDDSLNGQVFGGGTKVTVL
In the case of B6, the binding result with MERS-CoV spike protein is “no binding (tested: 200 µg/mL)”.

B7: COV44-74 (antibody, V domains shown)
VH: QVQLVQSGAEVKKPGASVKVSCKASGYTFSSYYMNWVRQAPGQGLEWVGLISPSAGYTAYAQMFQGRVTMTRDTSTSTVYMELSSLRSEDTAVYYCARVAVAGPNDYWGQGTLVTVSS
VL: EIVLTQSPGTLSLSPGERATLSCRASQSISSSYLAWYQQKPGQAPRLVILAASTRATGIPDRFSGSGSGTDFTLTISRLEPEDFALYYCQHYRSSPPLWTFGQGTKVEIR
In the case of B7, the binding result in experiment [1] is given as “no binding (tested: 200 µg/mL)”.

The record behind these values is patent US20250145690A1 (US Dept. of Health and Human Services, published 2025).
